Measured values from KR20150077770A (dated 2015).

How the values were obtained:
[1] = target: T1, YRS (Tyrosyl-tRNA synthetase), purified recombinant (UniProt P54577 1-528, limits assumed); experiment: Luminex multiplex bead assay, anti-HA-biotin / SA-PE detection
T1 construct: also called 타이로실-tRNA 합성효소
T1 sequence (looked up): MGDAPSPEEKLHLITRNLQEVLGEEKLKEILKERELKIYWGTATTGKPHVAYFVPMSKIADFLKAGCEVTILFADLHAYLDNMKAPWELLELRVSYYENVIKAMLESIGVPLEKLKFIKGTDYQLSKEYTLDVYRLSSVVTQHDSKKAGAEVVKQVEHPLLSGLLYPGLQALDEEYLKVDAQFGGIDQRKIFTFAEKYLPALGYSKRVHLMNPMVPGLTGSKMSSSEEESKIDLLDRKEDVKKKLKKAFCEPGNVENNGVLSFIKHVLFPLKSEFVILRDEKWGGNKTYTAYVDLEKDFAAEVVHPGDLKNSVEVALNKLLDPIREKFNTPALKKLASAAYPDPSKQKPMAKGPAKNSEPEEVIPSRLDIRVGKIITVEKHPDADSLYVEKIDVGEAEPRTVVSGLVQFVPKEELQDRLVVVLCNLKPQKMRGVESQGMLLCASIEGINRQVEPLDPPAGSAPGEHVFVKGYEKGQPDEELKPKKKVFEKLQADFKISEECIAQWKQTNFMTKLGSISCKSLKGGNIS

[2] = target: T2, NRS (Asparaginyl-tRNA synthetase), purified recombinant (UniProt O43776 1-548, limits assumed); experiment: as above
T2 construct: also called 아스파라기닐딜-tRNA 합성효소
T2 sequence (looked up): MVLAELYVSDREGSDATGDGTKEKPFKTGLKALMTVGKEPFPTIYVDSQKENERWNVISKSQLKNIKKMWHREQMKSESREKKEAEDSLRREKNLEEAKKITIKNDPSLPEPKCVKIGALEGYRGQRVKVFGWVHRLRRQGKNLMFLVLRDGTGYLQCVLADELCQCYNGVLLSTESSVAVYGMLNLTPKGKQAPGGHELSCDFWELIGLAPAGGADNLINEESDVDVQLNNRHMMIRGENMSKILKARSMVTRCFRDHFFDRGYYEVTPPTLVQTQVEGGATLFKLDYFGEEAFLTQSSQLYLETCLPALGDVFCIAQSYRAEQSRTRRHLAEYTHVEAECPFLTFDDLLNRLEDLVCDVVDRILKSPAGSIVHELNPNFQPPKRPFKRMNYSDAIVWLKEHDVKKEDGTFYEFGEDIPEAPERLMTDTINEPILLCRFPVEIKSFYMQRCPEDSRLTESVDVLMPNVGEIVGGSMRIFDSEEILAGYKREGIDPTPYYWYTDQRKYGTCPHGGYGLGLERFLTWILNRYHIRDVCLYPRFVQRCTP

[3] = target: T3, SRS (Seryl-tRNA synthetase), purified recombinant (UniProt P49591 1-514, limits assumed); experiment: as above
T3 construct: also called 세릴-tRNA 합성효소

[4] = target: T4, AIMP1 (Aminoacyl-tRNA-synthetase-interacting multifunctional protein 1), purified recombinant (UniProt Q12904 1-312, limits assumed); experiment: as above
T4 construct: also called AIMP1(p43); p43
T4 sequence (looked up): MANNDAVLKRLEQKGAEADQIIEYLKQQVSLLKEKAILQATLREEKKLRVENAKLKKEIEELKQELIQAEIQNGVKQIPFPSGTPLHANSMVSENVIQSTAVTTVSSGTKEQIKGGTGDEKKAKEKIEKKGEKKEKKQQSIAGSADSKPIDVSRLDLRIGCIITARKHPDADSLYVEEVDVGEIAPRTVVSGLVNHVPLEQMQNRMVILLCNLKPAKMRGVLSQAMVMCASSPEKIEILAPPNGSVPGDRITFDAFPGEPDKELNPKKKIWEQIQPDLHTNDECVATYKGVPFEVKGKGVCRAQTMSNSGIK

[5] = target: T5, WRS (Tryptophanyl-tRNA synthetase), purified recombinant (UniProt P23381 1-471, limits assumed); experiment: as above
T5 construct: also called 트립토파닐-tRNA 합성효소
T5 sequence (looked up): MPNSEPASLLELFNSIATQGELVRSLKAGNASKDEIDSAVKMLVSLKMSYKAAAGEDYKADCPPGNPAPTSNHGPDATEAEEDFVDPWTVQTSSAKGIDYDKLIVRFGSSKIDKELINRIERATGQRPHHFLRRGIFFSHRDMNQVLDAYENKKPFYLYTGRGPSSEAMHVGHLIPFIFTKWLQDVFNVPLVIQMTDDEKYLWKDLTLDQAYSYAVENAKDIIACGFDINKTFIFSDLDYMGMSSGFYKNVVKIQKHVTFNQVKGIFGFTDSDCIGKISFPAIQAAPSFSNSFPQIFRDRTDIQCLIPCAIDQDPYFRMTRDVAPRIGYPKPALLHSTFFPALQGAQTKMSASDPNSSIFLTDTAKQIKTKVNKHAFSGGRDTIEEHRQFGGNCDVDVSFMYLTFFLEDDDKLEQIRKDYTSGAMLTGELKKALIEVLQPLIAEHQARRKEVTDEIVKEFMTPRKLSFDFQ

[6] = target: T6, GRS (Glycyl-tRNA synthetase), purified recombinant (UniProt P41250 55-739, limits assumed); experiment: as above
T6 construct: also called 글리실-tRNA 합성효소
T6 sequence (looked up): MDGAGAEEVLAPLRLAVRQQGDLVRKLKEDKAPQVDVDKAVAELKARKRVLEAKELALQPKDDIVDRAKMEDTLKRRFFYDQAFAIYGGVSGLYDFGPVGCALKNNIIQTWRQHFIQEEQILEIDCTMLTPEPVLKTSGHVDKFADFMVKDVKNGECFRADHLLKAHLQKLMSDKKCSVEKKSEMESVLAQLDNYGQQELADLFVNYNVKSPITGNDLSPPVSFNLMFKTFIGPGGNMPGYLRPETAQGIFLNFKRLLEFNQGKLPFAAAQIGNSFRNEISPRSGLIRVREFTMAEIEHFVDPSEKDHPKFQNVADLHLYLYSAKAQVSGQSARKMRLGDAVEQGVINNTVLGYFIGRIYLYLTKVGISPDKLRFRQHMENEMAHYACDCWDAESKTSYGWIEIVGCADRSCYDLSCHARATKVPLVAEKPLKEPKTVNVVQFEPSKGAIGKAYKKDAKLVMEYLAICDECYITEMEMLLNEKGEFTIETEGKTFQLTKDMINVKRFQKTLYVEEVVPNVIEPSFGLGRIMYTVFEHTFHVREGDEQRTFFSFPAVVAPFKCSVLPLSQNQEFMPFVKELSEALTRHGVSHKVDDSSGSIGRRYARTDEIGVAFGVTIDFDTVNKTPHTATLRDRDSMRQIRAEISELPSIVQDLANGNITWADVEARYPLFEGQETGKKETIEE

[7] = target: T7, KRS (Lysyl-tRNA synthetase), purified recombinant (UniProt Q15046 1-597, limits assumed); experiment: as above
T7 construct: also called 리실-tRNA 합성효소

[8] = target: T8, HRS (Histidyl-tRNA synthetase), purified recombinant antigen (human, UniProt P12081 1-509, limits assumed); experiment: SPR (ProteOn XPR36), HRS amine-coupled on GLC chip, purified scFv 500-30 nM injected, 25 C
T8 construct: It was immobilised on the GLC chip (SPR), coupled to Luminex beads and used as the ELISA standard; also called HRS 항원; 재조합 HRS 표준물질
T8 sequence (looked up): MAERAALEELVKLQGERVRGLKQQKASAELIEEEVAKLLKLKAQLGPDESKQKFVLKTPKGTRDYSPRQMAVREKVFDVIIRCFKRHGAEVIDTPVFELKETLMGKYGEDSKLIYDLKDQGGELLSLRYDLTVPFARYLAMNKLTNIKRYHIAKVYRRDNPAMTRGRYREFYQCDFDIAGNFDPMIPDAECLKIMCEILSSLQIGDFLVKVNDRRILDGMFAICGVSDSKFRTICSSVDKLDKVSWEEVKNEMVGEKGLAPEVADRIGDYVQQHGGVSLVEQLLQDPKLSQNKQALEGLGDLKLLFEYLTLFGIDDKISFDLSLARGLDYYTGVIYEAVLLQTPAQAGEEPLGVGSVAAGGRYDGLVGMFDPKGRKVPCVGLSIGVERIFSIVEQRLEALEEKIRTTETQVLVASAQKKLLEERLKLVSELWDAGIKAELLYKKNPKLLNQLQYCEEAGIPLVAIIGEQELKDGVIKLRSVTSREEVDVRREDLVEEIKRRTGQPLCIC

T7 sequence (Q15046 whole entry): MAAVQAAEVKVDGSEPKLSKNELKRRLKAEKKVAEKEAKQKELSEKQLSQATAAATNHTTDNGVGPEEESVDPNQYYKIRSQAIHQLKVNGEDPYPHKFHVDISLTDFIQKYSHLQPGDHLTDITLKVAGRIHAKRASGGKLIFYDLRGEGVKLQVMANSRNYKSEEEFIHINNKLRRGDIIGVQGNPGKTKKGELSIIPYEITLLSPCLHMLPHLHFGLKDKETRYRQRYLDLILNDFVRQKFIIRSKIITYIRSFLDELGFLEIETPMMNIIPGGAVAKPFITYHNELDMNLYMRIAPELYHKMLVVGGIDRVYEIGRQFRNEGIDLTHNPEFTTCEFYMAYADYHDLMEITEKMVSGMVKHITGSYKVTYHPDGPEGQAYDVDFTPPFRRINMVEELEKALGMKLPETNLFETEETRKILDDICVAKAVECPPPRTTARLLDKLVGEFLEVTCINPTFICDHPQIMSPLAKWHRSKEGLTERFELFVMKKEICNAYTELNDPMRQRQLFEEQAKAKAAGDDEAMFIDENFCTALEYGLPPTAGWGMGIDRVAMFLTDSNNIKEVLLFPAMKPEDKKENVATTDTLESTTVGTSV
T3 sequence (P49591 whole entry): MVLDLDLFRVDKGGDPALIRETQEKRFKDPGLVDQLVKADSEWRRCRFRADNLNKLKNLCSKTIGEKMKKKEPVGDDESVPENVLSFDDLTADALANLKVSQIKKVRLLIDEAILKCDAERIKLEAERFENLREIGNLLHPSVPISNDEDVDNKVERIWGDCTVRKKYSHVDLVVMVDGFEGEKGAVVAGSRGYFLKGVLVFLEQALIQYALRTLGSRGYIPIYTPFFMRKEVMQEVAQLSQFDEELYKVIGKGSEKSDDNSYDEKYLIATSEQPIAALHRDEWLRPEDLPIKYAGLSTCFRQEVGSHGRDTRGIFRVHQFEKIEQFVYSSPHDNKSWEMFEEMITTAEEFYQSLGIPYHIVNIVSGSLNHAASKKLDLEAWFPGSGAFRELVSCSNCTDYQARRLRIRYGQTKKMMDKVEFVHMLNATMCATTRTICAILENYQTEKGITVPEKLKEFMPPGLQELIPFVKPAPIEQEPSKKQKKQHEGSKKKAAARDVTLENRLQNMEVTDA

B1: anti-HRS scFv Biocon-H1 (scFv)
scFv: EVQLLESGGGLVQPGGSLRLSCAASGFTFSGYYMSWVRQAPGKGLEWVSLISHGGGNIYYADSVKGRFTISRDNSKNTLYLQMNSLRAEDTAVYYCARFPLEFDYWGQGTLVTVSSGGGGSGGGGSGGGGSQSVLTQPPSASGTPGQRVTISCTGSSSNIGSNAVSWYQQLPGTAPKLLIYDDNKRPSGVLDRFSGSKSGTSASLAISGLRSEDEADYYCGTWDDSLSGYVFGGGTKLTVL
notes: Single clone from a human VH3-23/VL1g phage scFv library, expressed in E. coli periplasm; Periplasmic extract was used in the western blot and Luminex assay, Ni-NTA-purified scFv in SPR and ELISA; also called 항 HRS scFv 항체; 본 발명의 항체; not shown: tags from the pComb3X vector (purified on Ni-NTA, detected with anti-HA)
B1: no binding [1]; no binding [2]; no binding [3]. B1: no binding [4]; no binding [5]; no binding [6]. The binding result [7] was “no binding” and the Kd [8] was 70 nM.
